Test results published in patent publication US20190137523A1 (Hoffmann-La Roche, published 2019).

Biological target: T1, VEGF-A 121 (Peprotech), dimeric (human, UniProt P15692-9 27-147)
T1 construct: also called VEGF121
T1 sequence (looked up): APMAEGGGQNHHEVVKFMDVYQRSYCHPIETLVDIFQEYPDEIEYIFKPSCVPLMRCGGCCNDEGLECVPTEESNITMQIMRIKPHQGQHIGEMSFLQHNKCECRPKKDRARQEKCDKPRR
Assay: SPR (Biacore T200), consecutive injections. VEGF-A 121 is displayed by captured rH-4.6.1-IgG (Avastin) and saturated again with rH-4.6.1-IgG. Setup as printed: rH-4.6.1-IgG*VEGF-A*rH4.6.1*Ab1*Ab2
Experimental: The sample buffer was the system buffer supplemented with 1 mg/ml CMD (Carboxymethyldextran, Sigma #86524). The system operated at 25° C.

binding result: binds
B1: 13.7.40-Ru (antibody, V domains shown)
VH: QAQLQQPGAELVKPGASVNLSCKASGYTFTNYWIHWVSQRPGQGLEWIGEINPSDGRTYYNEKFKNKVILTVDEASTTAYLQLSSLTSEDSAVYYCTSRYYIYGVDYWGQGTTLTVSS
VL: SIVMTQTPKFLLVSPGDRVTITCKASQSVGHDVSWYRQKPGQSPKVLIYYASNRYTGVPDRFTGSGYGTDFTFTVRSVRTEDLAVYFCQQDYTSPLTFGTGTKLELKR
notes: Tested as a ruthenylated conjugate
